Measured values as given in patent US20160166634A1 (Novartis, published 2016).

target: human APJ receptor (hAPJ) (human) (UniProt P35414); assay: cell-based or functional assay
Sequence (P35414 whole entry): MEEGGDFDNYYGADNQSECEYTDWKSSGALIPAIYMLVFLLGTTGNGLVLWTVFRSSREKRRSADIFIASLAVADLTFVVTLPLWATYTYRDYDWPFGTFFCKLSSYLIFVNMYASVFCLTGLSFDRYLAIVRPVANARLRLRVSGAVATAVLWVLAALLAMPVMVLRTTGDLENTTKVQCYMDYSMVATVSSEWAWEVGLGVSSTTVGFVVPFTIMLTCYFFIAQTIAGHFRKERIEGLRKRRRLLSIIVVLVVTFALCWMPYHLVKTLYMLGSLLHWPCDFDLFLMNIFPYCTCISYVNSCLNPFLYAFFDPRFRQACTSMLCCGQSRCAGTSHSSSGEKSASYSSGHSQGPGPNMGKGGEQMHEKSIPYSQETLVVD

Substance	hAPJ Ca2+ Flux EC50 [nM]
Example 1: Albumin-MPA-O2Oc-O2Oc-O2Oc-O2Oc-Q-R-P-R-L-C*-H-F-G-P-Nle-C*-f-OH (from UniProt P02768 25-609)	47.2
Example 2: Albumin-TPA-O2Oc-O2Oc-O2Oc-O2Oc-Q-R-P-R-L-C*-H-F-G-P-Nle-C*-f-OH (from UniProt P02768 25-609)	92.4
Example 3: Albumin-MPA-NHCH2CH2CH2-OCH2CH2OCH2CH2O-CH2CH2CH2NH-C(O)CH2CH2C=O-A-R-P-R-L-S-H-K-G-P-Nle-P-F-OH (from UniProt P02768 25-609)	52
